Laboratory results: US20190292247A1 (DEGENRX B V, published 2019)

Experiments:
[1] = target: T1, Stable Crossbeta oligomers (Perkin Elmer Amyloid Oligomers AlphaLISA High-Specificity Detection Kit (AL334F)) (UniProt P05067 672-713); experiment: sandwich ELISA: CBB-VNAR coated at 2 µg/ml as capture, the stable oligomer concentration is varied, detection with 6E10-biotin and streptavidin-HRP; sandwich ELISA; CBB-VNAR coated 2 µg/ml as capture; stable Crossbeta oligomer titrated
T1 construct: also called Aβ-oligomers
Description: (§1) The generic amyloid beta binding antibody 6E10-biotin was immobilized on streptavidin Alphascreen®donor beads, while FLAG-tagged CBB-VNAR was immobilized on anti-FLAG Alphascreen®acceptor beads. These beads were incubated with different concentrations of amyloid beta 1-42 derived antigens (oligomers, monomers, fibrils, all prepared as described in example 1). In this format, a specific signal is generated when donor/6E10 and acceptor/CBB-VNAR beads simultaneously bind to different epitopes on the same molecule. […] Plates were then read using a Perkinelmer Enspire® plate reader using the 384 well factory preset measuring protocol. […] Stable Crossbeta oligomers (Perkin Elmer Amyloid Oligomers AlphaLISA High-Specificity Detection Kit (AL334F)) were also detected using an ELISA sandwich immunoassay format where the CBB-VNAR was immobilized to Nunc amino immobilizer plates (2 μg/ml coating, 1 hr rT) to serve as oligomer capture molecule. After incubation of the CBB-VNAR coated wells with different amounts of stable oligomer for 1 hour, wells were washed and bound oligomer was detected using sequential incubation with 6E10-biotin and streptavidin-HRP as described in example 1.

[2] = target: T2, amyloid beta 1-42 oligomer (UniProt P05067 672-713); experiment: Alphascreen proximity sandwich: 6E10-biotin on streptavidin donor beads, CBB-VNAR on anti-FLAG acceptor beads; the oligomer concentration is varied; Alphascreen bead sandwich with 6E10-biotin; oligomer in solution titrated; apparent EC50
T2 construct: domain: amyloid beta 1-42; Soluble oligomeric aggregate; also called Aβ-oligomers; oligomeric amyloid beta 1-42
Description: as §1

[3] = target: T2, amyloid beta 1-42 oligomer; experiment: ELISA on immobilized oligomer (5 µg/ml), anti-FLAG-M2-HRP detection; ng/ml, as measured in the ELISA
Description: To probe the binding affinities of CBB-VNAR towards different amyloid beta species and aggregation states, ELISA assays were performed. As a comparator antibody, the well-characterized 6E10 antibody was used. The 6E10 antibody recognizes N-terminal amino acid residues 3-8 of amyloid beta (EFRHDS), an epitope that is present and available for antibody binding in amyloid beta 1-42 derived antigens regardless of the physical form or aggregation state (Crisostomo et al., 2015. Data Brief. 2015 Aug. 6; 4:650-8.; Frenzel et al., 2014. PLoS One. 2014 Mar. 3; 9(3):e89490). Amyloid beta aggregates were prepared by incubation of monomeric synthetic amyloid beta 1-42 monomer in either F-12 medium (for oligomers) or 10 mM HCl (for fibrils) essentially as described by Dahlgren et al. (2002. J Biol Chem. 2002 Aug. 30; 277(35):32046-53). Amyloid beta derived antigens in different forms (oligomer, monomer, fibril, all at 5 μg/ml) were immobilized to Nunc Amino Immobilizer plates and blocked with ethanolamine according to the manufacturer's instructions. After washing, plates were probed with different concentrations of either FLAG-tagged CBB-VNAR or biotinylated 6E10 antibody (in parallel and on the same plates) for 1 hour. Bound antibody was then detected using anti-FLAG-M2-HRP (for CBB-VNAR) or with streptavidin-HRP (for 6E10-biotin). […]

[4] = target: T2, amyloid beta 1-42 oligomer; experiment: intrinsic Trp fluorescence titration, 0.5 uM CBB-VNAR in PBS pH 7.2 with 0.5 mM EDTA, excitation 280 nm
Text: The amino acid residue tryptophan (Trp or W) intrinsically fluoresces upon excitation in the range 280-295 nm. The emission intensity (i.e. quantum yield) and emission wavelength are sensitive towards the local environment of the Trp residue. The local environment can change, for example, when the Trp residue is involved in conformational changes or ligand binding. Therefore, Trp emission is widely used to study proteins and their interaction with other proteins or small molecules. […] To evaluate whether the Trp residues of CBB-VNAR are involved in the binding of amyloid beta oligomer antigen, a fluorescence titration study was performed. For this experiment, 0.5 uM CBB-VNAR or 12Y2 control VNAR were titrated with known quantities of amyloid beta oligomer (ABO) in Phosphate Buffered Saline (PBS) buffer, pH 7.2. […] After each ABO addition, the sample was equilibrated until the Trp fluorescence intensity was stable, and Trp emission spectra were recorded between 320 and 450 nm using 280 nm excitation. […] Upon addition of ABO, the emission intensity of CBB-VNAR decreases in a dose-dependent and saturable fashion where the intensity decreases to about 70% of the intensity measured for the native protein (FIGS. 5A and C). […]

[5] = target: T2, amyloid beta 1-42 oligomer; experiment: intrinsic Trp fluorescence quenching; the varied concentration is that of the oligomer (ABO), with CBB-VNAR fixed at 0.5 uM
Text: Therefore, Trp emission is widely used to study proteins and their interaction with other proteins or small molecules. The invariable core structure of the VNAR as isolated from wobbegong sharks has two Trp residues (see sequence below, Trp indicated in black) of which one is buried inside the protein whereas the other is exposed to the solvent (see FIG. 5D). The CBB-VNAR has two additional Trp residues in the CDR regions (one in CDR1, one in CDR3). No Trp residues are present in the CDR regions of the 12Y2 control protein. Apart from the CDR sequences, this control 12Y2 protein has an amino acid sequence identical to that of CBB-VNAR. To evaluate whether the Trp residues of CBB-VNAR are involved in the binding of amyloid beta oligomer antigen, a fluorescence titration study was performed. For this experiment, 0.5 uM CBB-VNAR or 12Y2 control VNAR were titrated with known quantities of amyloid beta oligomer (ABO) in Phosphate Buffered Saline (PBS) buffer, pH 7.2. […] After each ABO addition, the sample was equilibrated until the Trp fluorescence intensity was stable, and Trp emission spectra were recorded between 320 and 450 nm using 280 nm excitation. […] Upon addition of ABO, the emission intensity of CBB-VNAR decreases in a dose-dependent and saturable fashion where the intensity decreases to about 70% of the intensity measured for the native protein (FIGS. 5A and C). […]

T2 sequence (P05067 672-713 limits assumed): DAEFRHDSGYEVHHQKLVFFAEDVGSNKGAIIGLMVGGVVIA
T1 sequence (P05067 672-713): as the sequence (P05067 672-713 limits assumed) above

EC50 [1]: 0.01 mg/L
EC50 [2]: 0.1 mg/L
EC50 [3]: 0.004 mg/L
Trp emission intensity at saturation with oligomer, relative to the native protein [4]: ~70%
EC50 (read off the curve) [5]: ~8 mg/L
B1: CBB-VNAR (FLAG-tagged) (VNAR)
VNAR: AWVDQTPRTATKETGESLTINCVLRDQNGWSRTGWYRTKLGSTNEQSISIGGRYVETVNKGSKSFSLRISDLRVEDSGTYKCQALLNPRREEFWFSRRYPVVKGAGTALTVKA
notes: Monomeric shark-type VNAR single domain (Mw 15 kDa); not shown: FLAG tag
